The target of test [1] is A/Michigan/45/2015 H1 trimer (for structural studies) (influenza A virus A/Michigan/45/2015 (H1)). The test can be described thus: cryo-EM structure.
In test [2] the target is A/Perth/16/2009 H3 trimer (for structural studies) (influenza A virus A/Perth/16/2009 (H3N2)). The test can be described thus: crystal structure.
For test [3] the target is unchanged. The test can be described thus: cryo-EM structure.

One may read the stoichiometry N as the number of molecules, sites or subunits per partner or assembly. Take “A/Michigan/45/2015 H1 trimer (for structural studies) (natural protein)”: in test [1], the stoichiometry N is 3.
On to “A/Perth/16/2009 H3 trimer (for structural studies) (natural protein)”, for which the stoichiometry N in test [2] and in test [3] was 3 throughout.

The record behind these values is PMC11096021.
